In data set [1] the target is human GST (human) (UniProt P09211). The data set can be described thus: cross-linking; 1% glutaraldehyde, 30 min, room temperature, protein 50 μg/mL, 10% SDS-PAGE; sample without GSH.
The target is the same in data set [2]. The data set can be described thus: SEC; Superdex 200 10/300 GL, 100 mM potassium phosphate pH 8.0, 1 mM EDTA, 25°C; incubated and run with GSH at 0.7 mM or more (2 mM GSH in Figures 1B and 3).
Data set [3] shares this target. Description: SEC; Superdex 200 10/300 GL, 100 mM potassium phosphate pH 8.0, 1 mM EDTA, 0.3 mL/min, 25°C; incubated and run without GSH. On the technique in general: SEC sorts molecules by how far they enter the pores of the column.
For data set [4] the target is unchanged. Description: cross-linking; 1% glutaraldehyde, 30 min, room temperature, protein 50 μg/mL, 10% SDS-PAGE; sample incubated with GSH.
Data set [5] concerns the molecule itself. The data set can be described thus: SEC; GSH-stabilized dimer dialysed for 4 h against buffer without GSH, then loaded on the column.
Data set [6] deals with the molecule itself. The data set can be described thus: SEC; Superdex 200 10/300 GL, 100 mM potassium phosphate pH 8.0, 1 mM EDTA, 0.3 mL/min, 25°C; incubated and run without GSH.
Data set [7] deals with the molecule itself. Description: SEC; Superdex 200 10/300 GL, 100 mM potassium phosphate pH 8.0, 1 mM EDTA, 25°C; incubated and run with GSH at 0.7 mM or more (2 mM GSH in Figures 1B and 3).

As to “human GST (from UniProt P09211 1-210) (enzyme)”, the stoichiometry N in data set [1], in data set [2], in data set [3] and in data set [4] was 2 in each case.

B1: Plasmodium falciparum glutathione S-transferase (enzyme, UniProt Q8ILQ7 1-211, looked up)
chain: MGDNIVLYYFDARGKAELIRLIFAYLGIEYTDKRFGVNGDAFVEFKNFKKEKDTPFEQVPILQIGDLILAQSQAIVRYLSKKYNICGESELNEFYADMIFCGVQDIHYKFNNTNLFKQNETTFLNEDLPKWSGYFEKLLKKNHTNNNNDKYYFVGNNLTYADLAVFNLYDDIETKYPSSLKNFPLLKAHNEFISNLPNIKNYITNRKESVY
notes: Glutathione S-transferase of Plasmodium falciparum (PfGST), recombinant, about 26 kDa on SDS-PAGE; The chain is a homotetramer without GSH and a homodimer at GSH of 0.7 mM or more, so copies is left empty; also called PfGST; recombinant PfGST; source: E. coli M15, purified (Ni-NTA agarose)
On to B1, for which the “ratio of dimer to tetramer” value in data set [5] is ~0.33 dimer:tetramer. Moreover, the “stoichiometry N” value in data set [6] came out at 4; in data set [7], 2.

In general, stoichiometry N refers to a count of units in the complex or per binding partner.
